The results in this text go back to US20220049017A1 (KYMAB, published 2022).

Like-named read-outs stand apart in the source and are kept apart here.

Test [1] addresses T1, human PCSK9 variant a (human, UniProt Q8NBP7 31-692).
T1 construct: also called Human PCSK9 var A; hPCSK9a
Nature of the test: ProteOn SPR, captured antibody, pH 5.8.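 Further: antibodies captured on a GLC chip coated with anti-human Fc, rate constants from a 1:1 Langmuir fit of the sensorgrams, Kd derived from the fitted rates.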
Description: (§1) The SPR runs were performed using a GLC chip (Bio-Rad) immobilised with anti-human Fc antibodies. The analyte human antibodies were captured on the chip surface at 2 ug/ml. […] The chip surface was regenerated using two injections of 10 mM Glycine pH 1.5 for 160 seconds at 30 μl/min. The sensorgrams were then fitted with a 1:1 model (Langmuir kinetic model) where ka and kd are fitted and KD was calculated by the ProteOn software.

The target of test [2] is T2, mouse PCSK9 (mouse, UniProt Q80W65 35-694, limits assumed).
T2 construct: also called mPCSK9; PCSK9 mouse
T2 sequence (Q80W65 35-694 limits assumed): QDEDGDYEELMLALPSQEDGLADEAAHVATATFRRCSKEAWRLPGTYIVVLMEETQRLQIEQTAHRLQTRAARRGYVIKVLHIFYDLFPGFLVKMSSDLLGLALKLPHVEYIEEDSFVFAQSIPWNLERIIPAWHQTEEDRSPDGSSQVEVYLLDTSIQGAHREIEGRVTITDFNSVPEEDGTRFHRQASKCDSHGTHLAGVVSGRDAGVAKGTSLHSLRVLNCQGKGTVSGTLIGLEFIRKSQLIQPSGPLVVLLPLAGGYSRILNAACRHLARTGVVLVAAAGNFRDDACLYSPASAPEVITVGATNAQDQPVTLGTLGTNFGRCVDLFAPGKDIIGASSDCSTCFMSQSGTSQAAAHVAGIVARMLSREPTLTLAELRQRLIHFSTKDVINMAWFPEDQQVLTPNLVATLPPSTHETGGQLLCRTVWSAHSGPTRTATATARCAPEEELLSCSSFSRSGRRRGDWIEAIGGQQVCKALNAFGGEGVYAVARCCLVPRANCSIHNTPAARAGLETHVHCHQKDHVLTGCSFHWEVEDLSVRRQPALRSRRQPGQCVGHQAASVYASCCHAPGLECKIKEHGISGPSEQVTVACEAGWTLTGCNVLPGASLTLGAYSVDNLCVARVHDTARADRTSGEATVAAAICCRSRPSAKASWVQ
Put plainly: ProteOn SPR, captured antibody, pH 5.8.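 Further: antibodies captured on a GLC chip coated with anti-human Fc, rate constants from a 1:1 Langmuir fit of the sensorgrams, Kd derived from the fitted rates.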
Description: as §1

For test [3], the target named is T3, human PCSK9 reference (human, UniProt Q8NBP7 31-692). Nature of the test: ProteOn SPR, captured antibody, pH 5.8.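 Further: antibodies captured on a GLC chip coated with anti-human Fc, rate constants from a 1:1 Langmuir fit of the sensorgrams, Kd derived from the fitted rates.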
Description: as §1
Test [4] deals with T4, cynomolgus monkey PCSK9 (cynomolgus monkey, UniProt A8T662 31-692 (Macaca nemestrina entry), limits assumed).
T4 construct: also called Cyno PCSK9; cynoPCSK9
T4 sequence (A8T662 31-692 limits assumed): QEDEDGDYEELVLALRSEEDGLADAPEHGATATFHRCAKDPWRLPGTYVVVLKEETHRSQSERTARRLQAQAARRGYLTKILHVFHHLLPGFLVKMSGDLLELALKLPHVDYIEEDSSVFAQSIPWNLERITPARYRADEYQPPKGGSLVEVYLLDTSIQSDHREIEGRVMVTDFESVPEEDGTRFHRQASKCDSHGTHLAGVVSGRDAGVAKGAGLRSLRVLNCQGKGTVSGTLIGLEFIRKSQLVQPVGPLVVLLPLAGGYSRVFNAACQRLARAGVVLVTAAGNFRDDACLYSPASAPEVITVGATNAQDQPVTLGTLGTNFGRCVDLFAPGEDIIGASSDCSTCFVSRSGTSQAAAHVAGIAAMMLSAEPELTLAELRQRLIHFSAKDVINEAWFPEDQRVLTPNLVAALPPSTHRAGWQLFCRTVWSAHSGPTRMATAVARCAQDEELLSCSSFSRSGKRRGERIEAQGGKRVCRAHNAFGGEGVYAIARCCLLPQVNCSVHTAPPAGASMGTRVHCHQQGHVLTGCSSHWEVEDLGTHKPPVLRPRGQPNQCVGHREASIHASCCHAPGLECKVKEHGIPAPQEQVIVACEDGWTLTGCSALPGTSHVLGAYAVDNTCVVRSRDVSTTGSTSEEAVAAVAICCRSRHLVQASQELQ
Nature of the test: ProteOn SPR, captured antibody, pH 5.8.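 Further: antibodies captured on a GLC chip coated with anti-human Fc, rate constants from a 1:1 Langmuir fit of the sensorgrams, Kd derived from the fitted rates.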
Description: as §1

For test [5], the target named is T5, human PCSK9 D374Y gain-of-function mutant (human, UniProt Q8NBP7 31-692).
T5 construct: It was AF647-labelled in the HepG2 cell-based assay and unlabelled in SPR; also called Human PCSK9 GOF; hPCSK9 GOF
Put plainly: ProteOn SPR, captured antibody, pH 5.8.
Description: as §1

In test [6] the target is T6, human PCSK9 variant b (human, UniProt Q8NBP7 31-692).
T6 construct: also called Human PCSK9 var B; hPCSK9b
Nature of the test: ProteOn SPR, captured antibody, pH 5.8.
Description: as §1

Test [7] has as its target T5, human PCSK9 D374Y gain-of-function …. Nature of the test: cell-based or functional assay.
For test [8], the target named is T1, human PCSK9 variant a. Put plainly: ProteOn SPR, captured antibody, pH 7.6.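 Further: antibodies captured via anti-human Fc on a GLC sensor chip, PCSK9 binding sensorgrams fitted to a 1:1 Langmuir model giving on and off rates, with KD derived from them.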
Description: as §1
Test [9] deals with T2, mouse PCSK9. Nature of the test: ProteOn SPR, captured antibody, pH 7.6.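 Further: antibodies captured via anti-human Fc on a GLC sensor chip, PCSK9 binding sensorgrams fitted to a 1:1 Langmuir model giving on and off rates, with KD derived from them.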
Description: as §1
Test [10] concerns the target T3, human PCSK9 reference. Nature of the test: ProteOn SPR, captured antibody, pH 7.6.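 Further: antibodies captured via anti-human Fc on a GLC sensor chip, PCSK9 binding sensorgrams fitted to a 1:1 Langmuir model giving on and off rates, with KD derived from them.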
Description: as §1
The target of test [11] is T4, cynomolgus monkey PCSK9. Put plainly: ProteOn SPR, captured antibody, pH 7.6.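 Further: antibodies captured via anti-human Fc on a GLC sensor chip, PCSK9 binding sensorgrams fitted to a 1:1 Langmuir model giving on and off rates, with KD derived from them.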
Description: as §1
The target of test [12] is T5, human PCSK9 D374Y gain-of-function …. Put plainly: ProteOn SPR, captured antibody, pH 7.6.
Description: as §1
Test [13] concerns the target T6, human PCSK9 variant b. Put plainly: ProteOn SPR, captured antibody, pH 7.6.
Description: as §1
For test [14], the target named is T5, human PCSK9 D374Y gain-of-function …. Nature of the test: cell-based or functional assay. This is another data set of the same source.
Test [15] has the same target. Nature of the test: cell-based or functional assay. This is another data set of the same source.
For test [16] the target is unchanged. Put plainly: cell-based or functional assay. The source holds these as a separate data set.

B1: CL-148219 (antibody, V domains shown)
VH: QVHLQESGPGLVKPSETLSLTCTVSGGSISSYYWSWIRQYPGKGLEWIGYISYSGSSNYNPSLKRRVTISRDTSKNQFSLNLTSVIAADTAVYYCARNLMIRGAYGMDVWGQGTTVTVSS
VL: DTVMTQSPLSLPVTPGEPASISCRSSQSLLHSNGYNYLDWYLQKAGQSPQLLIYLGSNRASGVPDRFSGSVSGTDFTLKISRVEAEDVGIYYCMQALQTPFTFGPGTKVDIK
modifications: NLT motif in heavy chain framework 3 confirmed N-glycosylated by mass spectrometry
notes: Human antibody, captured through anti-human Fc in the SPR assay
One may read the Kd as the concentration at which binding is half-saturated. By koff is commonly meant the first-order rate constant of dissociation. In general, kon refers to the rate constant with which the complex forms. As for B1, the dissociation constant Kd is 0.426 nM in the test with human PCSK9 variant a [1]; 0.691 nM in the test with mouse PCSK9 [2]; 0.368 nM with human PCSK9 reference [3]; 0.345 nM with cynomolgus monkey PCSK9 [4]; 0.431 nM in test [5]; 0.412 nM with human PCSK9 variant b [6]. Moreover, the equilibrium dissociation constant (Kd) with human PCSK9 variant a [8] is 0.216 nM; with mouse PCSK9 [9], 0.52 nM; in the test with human PCSK9 reference [10], 0.205 nM; in the test with cynomolgus monkey PCSK9 [11], 0.296 nM; in test [12] it was 0.245 nM; in the test with human PCSK9 variant b [13], 0.215 nM. In addition, the koff came out at 0.000387 s⁻¹ in the test with human PCSK9 variant a [1]; 0.000701 s⁻¹ with mouse PCSK9 [2]; 0.000374 s⁻¹ with human PCSK9 reference [3]; 0.000336 s⁻¹ with cynomolgus monkey PCSK9 [4]; 0.000391 s⁻¹ in test [5]; 0.000378 s⁻¹ with human PCSK9 variant b [6]. Besides, the dissociation rate constant (koff) with human PCSK9 variant a [8] is 0.000234 s⁻¹; in the test with mouse PCSK9 [9], 0.000411 s⁻¹; with human PCSK9 reference [10], 0.00023 s⁻¹; in the test with cynomolgus monkey PCSK9 [11] it was 0.000284 s⁻¹; in test [12], 0.000233 s⁻¹; in the test with human PCSK9 variant b [13], 0.000225 s⁻¹. Also, the kon in the test with human PCSK9 variant a [1] was found to be 908000 M⁻¹ s⁻¹; in the test with mouse PCSK9 [2], 1.01e+06 M⁻¹ s⁻¹; with human PCSK9 reference [3], 1.02e+06 M⁻¹ s⁻¹; in the test with cynomolgus monkey PCSK9 [4], 975000 M⁻¹ s⁻¹; in test [5] it was 908000 M⁻¹ s⁻¹; with human PCSK9 variant b [6], 918000 M⁻¹ s⁻¹. Besides, the kon with human PCSK9 variant a [8] is 1.08e+06 M⁻¹ s⁻¹; with mouse PCSK9 [9] it was 791000 M⁻¹ s⁻¹; with human PCSK9 reference [10] it was 1.13e+06 M⁻¹ s⁻¹; in the test with cynomolgus monkey PCSK9 [11], 958000 M⁻¹ s⁻¹; in [12] it was 949000 M⁻¹ s⁻¹; with human PCSK9 variant b [13] it was 1.05e+06 M⁻¹ s⁻¹. Moreover, the “IC50 (read off the curve)” value in test [7] is about 4 nM; in test [14], about 3 nM.

B2: CL-148219 QLT mutant (antibody, V domains shown)
VH: QVHLQESGPGLVKPSETLSLTCTVSGGSISSYYWSWIRQYPGKGLEWIGYISYSGSSNYNPSLKRRVTISRDTSKNQFSLQLTSVIAADTAVYYCARNLMIRGAYGMDVWGQGTTVTVSS
VL: DTVMTQSPLSLPVTPGEPASISCRSSQSLLHSNGYNYLDWYLQKAGQSPQLLIYLGSNRASGVPDRFSGSVSGTDFTLKISRVEAEDVGIYYCMQALQTPFTFGPGTKVDIK
As to B2, the Kd in the test with human PCSK9 variant a [1] came to 0.712 nM; with mouse PCSK9 [2], 1.43 nM; in the test with human PCSK9 reference [3] it was 0.667 nM; in the test with cynomolgus monkey PCSK9 [4], 0.568 nM; in [5], 0.753 nM; in the test with human PCSK9 variant b [6] it was 0.694 nM. Further, the equilibrium dissociation constant (Kd) amounted to 0.267 nM with human PCSK9 variant a [8]; 0.587 nM in the test with mouse PCSK9 [9]; 0.272 nM with human PCSK9 reference [10]; 0.352 nM in the test with cynomolgus monkey PCSK9 [11]; 0.303 nM in test [12]; 0.257 nM with human PCSK9 variant b [13]. Moreover, the off-rate constant (koff) came out at 0.000429 s⁻¹ with human PCSK9 variant a [1]; 0.000675 s⁻¹ in the test with mouse PCSK9 [2]; 0.000415 s⁻¹ with human PCSK9 reference [3]; 0.000331 s⁻¹ with cynomolgus monkey PCSK9 [4]; 0.000456 s⁻¹ in test [5]; 0.000421 s⁻¹ with human PCSK9 variant b [6]. Moreover, the koff in the test with human PCSK9 variant a [8] is 0.000229 s⁻¹; in the test with mouse PCSK9 [9] it was 0.000352 s⁻¹; with human PCSK9 reference [10] it was 0.000226 s⁻¹; with cynomolgus monkey PCSK9 [11] it was 0.000256 s⁻¹; in test [12], 0.000219 s⁻¹; with human PCSK9 variant b [13], 0.000221 s⁻¹. Besides, the on-rate constant (kon) with human PCSK9 variant a [1] is 602000 M⁻¹ s⁻¹; with mouse PCSK9 [2], 472000 M⁻¹ s⁻¹; in the test with human PCSK9 reference [3], 622000 M⁻¹ s⁻¹; in the test with cynomolgus monkey PCSK9 [4], 584000 M⁻¹ s⁻¹; in [5], 606000 M⁻¹ s⁻¹; in the test with human PCSK9 variant b [6] it was 607000 M⁻¹ s⁻¹. In addition, the kon in the test with human PCSK9 variant a [8] is 856000 M⁻¹ s⁻¹; with mouse PCSK9 [9], 600000 M⁻¹ s⁻¹; in the test with human PCSK9 reference [10] it was 833000 M⁻¹ s⁻¹; with cynomolgus monkey PCSK9 [11], 728000 M⁻¹ s⁻¹; in [12], 721000 M⁻¹ s⁻¹; in the test with human PCSK9 variant b [13], 862000 M⁻¹ s⁻¹. Besides, in test [15], the “IC50 (read off the curve)” value was about 2 nM.

B3: CL-274698 (antibody, V domains shown)
VH: QVQLQESGPGLVKPSGTLSLTCAVSGGSISSSKWWSWVRQPPGKGLEWIGETHYSGSTNYNPSLKSRVTISVDKSKNQFSLKLRSVTAADTAVYYCARVGATENFWGQGTLVTVSS
VL: EIVLTQSPATLSLSPGERATLSCRASQSVFRYLAWYQQKPGQAPRLLIYDASTRATDIPARFSGSGSGTDFTLTISSLEPEDFAVYYCQQRSNWPPTFGQGTKVEIK
notes: Human antibody with a kappa light chain, derived from a PCSK9 knockout mouse
Regarding B3, the dissociation constant Kd with human PCSK9 variant a [1] was determined as 0.0309 nM; with mouse PCSK9 [2], 0.103 nM; with human PCSK9 reference [3] it was 0.0286 nM; in the test with cynomolgus monkey PCSK9 [4] it was 0.0297 nM; in test [5] it was 0.025 nM; with human PCSK9 variant b [6] it was 0.0262 nM. Moreover, the dissociation constant Kd was 0.0998 nM with human PCSK9 variant a [8]; 0.273 nM in the test with mouse PCSK9 [9]; 0.0929 nM with human PCSK9 reference [10]; 0.0984 nM in the test with cynomolgus monkey PCSK9 [11]; 0.0689 nM in test [12]; 0.091 nM with human PCSK9 variant b [13]. Also, the off-rate (koff) was 4.81e-05 s⁻¹ in the test with human PCSK9 variant a [1]; 0.000137 s⁻¹ in the test with mouse PCSK9 [2]; 4.6e-05 s⁻¹ in the test with human PCSK9 reference [3]; 3.75e-05 s⁻¹ with cynomolgus monkey PCSK9 [4]; 3.83e-05 s⁻¹ in test [5]; 4.19e-05 s⁻¹ with human PCSK9 variant b [6]. In addition, the koff with human PCSK9 variant a [8] was 0.000136 s⁻¹; in the test with mouse PCSK9 [9], 0.000257 s⁻¹; with human PCSK9 reference [10], 0.000125 s⁻¹; with cynomolgus monkey PCSK9 [11], 0.000108 s⁻¹; in test [12] it was 8.36e-05 s⁻¹; in the test with human PCSK9 variant b [13] it was 0.000127 s⁻¹. Moreover, the association rate constant (kon) with human PCSK9 variant a [1] turned out to be 1.56e+06 M⁻¹ s⁻¹; in the test with mouse PCSK9 [2], 1.33e+06 M⁻¹ s⁻¹; with human PCSK9 reference [3], 1.6e+06 M⁻¹ s⁻¹; with cynomolgus monkey PCSK9 [4] it was 1.26e+06 M⁻¹ s⁻¹; in test [5], 1.53e+06 M⁻¹ s⁻¹; with human PCSK9 variant b [6], 1.6e+06 M⁻¹ s⁻¹. Besides, the kon in the test with human PCSK9 variant a [8] was 1.37e+06 M⁻¹ s⁻¹; with mouse PCSK9 [9], 941000 M⁻¹ s⁻¹; with human PCSK9 reference [10], 1.35e+06 M⁻¹ s⁻¹; in the test with cynomolgus monkey PCSK9 [11] it was 1.1e+06 M⁻¹ s⁻¹; in test [12], 1.21e+06 M⁻¹ s⁻¹; with human PCSK9 variant b [13], 1.39e+06 M⁻¹ s⁻¹. The “IC50 (read off the curve)” value in test [16] is about 4 nM.

B4: CL-274711 (antibody, V domains shown)
VH: QVQLQESGPGLVKPSQTLSLTCTVSGGSISSGGYYWSWIRQHPGKGLEWIGHIFYSGSTYYNPSLKSRVTISVDTSKNQFSLKLNSVTAADTAVYYCASEGGYYDIPDVWGQGTTVTVSS
VL: EIVLTQSPATLSLSPGERATLSCRASQSVSNYLAWYQQKPGQAPRLLISDASNRATGIPARFSGSGSGTDFTLTISSLEPEDFAIYYCQQRSNWPLTFGGGTKVEIK
notes: Human antibody with a kappa light chain, generated by immunising a PCSK9 knockout mouse
For B4, the Kd with mouse PCSK9 [2] was 1.26 nM; in the test with cynomolgus monkey PCSK9 [4] it was 0.164 nM; with mouse PCSK9 [9], 0.889 nM; with cynomolgus monkey PCSK9 [11], 0.145 nM.

B5: Alirocumab hIgG4PE (antibody, V domains shown)
VH: EVQLVESGGGLVQPGGSLRLSCAASGFTFNNYAMNWVRQAPGKGLDWVSTISGSGGTTNYADSVKGRFIISRDSSKHTLYLQMNSLRAEDTAVYYCAKDSNWGNFDLWGRGTLVTVSS
VL: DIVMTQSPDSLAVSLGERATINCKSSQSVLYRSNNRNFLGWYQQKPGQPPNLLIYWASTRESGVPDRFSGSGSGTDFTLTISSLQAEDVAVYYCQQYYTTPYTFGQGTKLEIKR
With B5, the “IC50 (read off the curve)” value in test [7] is about 2 nM.
